What was measured:
[1] = target: NS3 helicase (full length) (Hepatitis C virus) (UniProt P26663); conditions: biotin at position 2, streptavidin-bound; streptavidin displaced from 5' end; 10 nM NS3, 100 nM oligonucleotide
[2] = target: T1, Dda helicase (bacteriophage T4?) (UniProt P32270); conditions: biotin at position 60, streptavidin-bound; streptavidin displacement rate at 1 uM Dda, preincubated with DNA, 5 mM ATP, Mg2+
T1 sequence: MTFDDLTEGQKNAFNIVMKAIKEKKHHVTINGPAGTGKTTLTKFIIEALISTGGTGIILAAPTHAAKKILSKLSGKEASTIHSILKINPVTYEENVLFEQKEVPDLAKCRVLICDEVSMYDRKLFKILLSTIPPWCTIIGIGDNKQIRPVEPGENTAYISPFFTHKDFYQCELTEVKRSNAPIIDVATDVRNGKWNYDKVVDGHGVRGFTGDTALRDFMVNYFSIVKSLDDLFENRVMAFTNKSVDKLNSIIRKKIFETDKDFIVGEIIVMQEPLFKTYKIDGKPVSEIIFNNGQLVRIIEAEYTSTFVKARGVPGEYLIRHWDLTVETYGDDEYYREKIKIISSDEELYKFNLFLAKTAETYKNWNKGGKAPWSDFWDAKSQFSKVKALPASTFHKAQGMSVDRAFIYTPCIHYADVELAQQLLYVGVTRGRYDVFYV

[3] = target: T2, gp41 helicase (bacteriophage T4?) (UniProt P04530); conditions: biotin at position 60, streptavidin-bound; streptavidin displacement rate at 4 uM gp41; 5 mM ATP, 12.5 mM Mg(OAc)2, 150 mM KOAc, pH 7.5, 37 C; none without ATP
T2 sequence: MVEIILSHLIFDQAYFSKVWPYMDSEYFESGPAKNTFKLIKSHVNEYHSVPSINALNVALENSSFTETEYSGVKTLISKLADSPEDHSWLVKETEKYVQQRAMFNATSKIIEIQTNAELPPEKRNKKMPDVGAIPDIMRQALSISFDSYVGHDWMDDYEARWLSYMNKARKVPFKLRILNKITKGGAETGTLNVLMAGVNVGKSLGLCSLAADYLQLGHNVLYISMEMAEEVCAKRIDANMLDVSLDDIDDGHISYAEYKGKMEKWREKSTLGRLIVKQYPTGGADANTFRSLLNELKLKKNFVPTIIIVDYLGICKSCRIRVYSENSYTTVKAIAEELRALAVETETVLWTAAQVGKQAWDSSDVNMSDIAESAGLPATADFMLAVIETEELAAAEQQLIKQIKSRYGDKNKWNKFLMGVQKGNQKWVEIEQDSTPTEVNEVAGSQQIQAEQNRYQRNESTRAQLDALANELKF

NS3 helicase (full length) (Hepatitis C virus), sequence (P26663 1027-1657): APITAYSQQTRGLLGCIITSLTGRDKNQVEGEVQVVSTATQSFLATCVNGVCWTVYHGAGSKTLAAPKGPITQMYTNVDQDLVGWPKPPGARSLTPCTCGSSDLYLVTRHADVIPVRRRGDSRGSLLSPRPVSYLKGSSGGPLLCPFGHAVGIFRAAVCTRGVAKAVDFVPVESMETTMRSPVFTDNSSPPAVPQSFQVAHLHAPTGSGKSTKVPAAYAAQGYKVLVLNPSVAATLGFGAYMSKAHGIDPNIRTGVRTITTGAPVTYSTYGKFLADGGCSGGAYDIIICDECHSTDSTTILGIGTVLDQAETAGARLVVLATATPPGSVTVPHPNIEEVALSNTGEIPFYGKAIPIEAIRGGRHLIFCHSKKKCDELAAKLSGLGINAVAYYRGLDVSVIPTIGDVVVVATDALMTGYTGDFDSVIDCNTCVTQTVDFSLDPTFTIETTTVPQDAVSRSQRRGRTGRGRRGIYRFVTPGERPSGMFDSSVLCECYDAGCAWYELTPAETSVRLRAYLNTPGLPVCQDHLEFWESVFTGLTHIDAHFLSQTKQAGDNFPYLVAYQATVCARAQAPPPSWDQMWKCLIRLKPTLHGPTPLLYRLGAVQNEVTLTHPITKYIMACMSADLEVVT

5'-bio-60-mer
activity (fold over spontaneous dissociation) [1]: > 100

3'-bio-61-mer (called 62-mer in text)
activity [2]: 7.9 s⁻¹ | activity [3]: 0.17 min⁻¹

Reference: patent US6309839
